According to the supplement of paper PMC7877785:
± gives the uncertainty stated by the source.

Assay: self-splicing fitness, log relative to wild type (ln ratio); higher = more splicing; Tetrahymena group I intron in knt gene, E. coli kanamycin selection, DiMSum; sequences stand for … in CUCUCU…GGAGGGAAAAGUUAUCAGGCAUGCACCUGGUAGCUAGUCUUUAAACCAAUAGAUUGCAUCGGUUUAAAAGGCAAGACCGUCAAAUUGCGGGAAAGGGGUCAACAGCCGUUCAGUACCAAGUCUCAGGGGAAACUUUGAGAUGGCCUUGCAAAGGGUAUGGUAAUAAGCUGACGGACAUGGUCCUAACCACGCAGCCAAGUCCUAAGUCAACAGAUCUUCUGUUGAUAUGGAUGCAGUUCACAGACUAAAUGUCGGUCGGGGAAGAUGUAUUCUUCUCAUAAGAUAUAGUCGGACCUCUCCUUAAUGGGAGCUAGCGGAUGAAGUGAUGCAACACUGGAGCCGCUGGGAACUAAUUUGUAUGCGAAAGUAUAUUGAUUAGUUUUGGAGUACUCGUGGUCG
Summary of the method: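 Library with all eight P1ex-region intron nucleotides randomised, intron inside the knt kanamycin-resistance gene on pET-22b(+), in E. coli BL21(DE3). Cells grew overnight at 37°C or 30°C on LB agar with or without 25 μg/mL kanamycin (plus 100 μg/mL carbenicillin, 50 μM IPTG, 0.2% rhamnose), in six replicate transformations. Pooled colonies were amplicon-sequenced on Illumina HiSeq 2500. DiMSum fitness is the error-weighted combination of wild-type-normalised replicate fold changes, kanamycin versus none.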

Sequence	self-splicing fitness (ln) (30 °C)	self-splicing fitness (ln) (37 °C)
UCUGAGCAAUAUUACGAUGG	-1.42 ± 0.16	-0.717 ± 0.2
GUGUAGCAAUAUUACGACGU	0.117 ± 0.095	0.9 ± 0.12
UCUGAGCAAUAUUACGCGGA	-3.6 ± 0.27	-2.66 ± 0.21
AACAAGCAAUAUUACGACUC	-0.216 ± 0.072	0.125 ± 0.097
UAUUAGCAAUAUUACGGCUU	-1.35 ± 0.13	-0.478 ± 0.17
GCGUAGCAAUAUUACGUGAC	-2.29 ± 0.29	-1.15 ± 0.28
CAAUAGCAAUAUUACGAGCU	-4.39 ± 0.42	-3.5 ± 0.42
AUUCAGCAAUAUUACGCAUC	-2.75 ± 0.16	-0.806 ± 0.16
UUACAGCAAUAUUACGUUUA	-1.3 ± 0.11	-0.512 ± 0.12
GUAGAGCAAUAUUACGGUUA	-1.35 ± 0.11	-0.0418 ± 0.13
UGUAAGCAAUAUUACGACGC	-2.61 ± 0.36	-1.61 ± 0.3
UGGAAGCAAUAUUACGCCCU	-0.2 ± 0.14	-0.0341 ± 0.18
AUCCAGCAAUAUUACGCGCC	-0.363 ± 0.14	0.126 ± 0.17
AAGGAGCAAUAUUACGCGUG	-4.9 ± 0.45	-2.1 ± 0.18
GGUCAGCAAUAUUACGACUC	-3.25 ± 0.24	-1.61 ± 0.32
CCUCAGCAAUAUUACGCGAC	-3.47 ± 0.28	-2.08 ± 0.22
AAUCAGCAAUAUUACGUUAA	-0.816 ± 0.072	-0.587 ± 0.077
GAAUAGCAAUAUUACGGUAU	-3.54 ± 0.18	-1.32 ± 0.16
GUUAAGCAAUAUUACGAACU	-2.35 ± 0.2	-0.527 ± 0.2
UCUGAGCAAUAUUACGCUAG	-1.31 ± 0.17	-1.43 ± 0.19
CUGAAGCAAUAUUACGGCAA	-3.04 ± 0.2	-1.21 ± 0.2
AACGAGCAAUAUUACGGGCU	-3.63 ± 0.23	-2.49 ± 0.22
CCGGAGCAAUAUUACGGGUA	-3.53 ± 0.4	
CUCCAGCAAUAUUACGAAAA	-2.78 ± 0.28	-1.89 ± 0.3
CAUUAGCAAUAUUACGUGGG	-3.46 ± 0.17	-2.76 ± 0.21

Sequence	self-splicing fitness (ln) (30 °C)	self-splicing fitness (ln) (37 °C)
CACGAGCAAUAUUACGUCCC	-1.45 ± 0.25	
UCAAAGCAAUAUUACGUGUA	-1.78 ± 0.07	-0.388 ± 0.066
AUCAAGCAAUAUUACGCAUG	-3.06 ± 0.12	-1.56 ± 0.098
ACAUAGCAAUAUUACGUUCA	-1.39 ± 0.095	-0.808 ± 0.13
GUUCAGCAAUAUUACGUUCG	-0.684 ± 0.067	0.137 ± 0.1
AUAGAGCAAUAUUACGGGCU	-4.11 ± 0.27	-2.51 ± 0.29
AUGCAGCAAUAUUACGUAUU	-4.03 ± 0.26	-1.69 ± 0.14
CCCCAGCAAUAUUACGAUCU	-3.24 ± 0.13	-3.06 ± 0.22
CGGAAGCAAUAUUACGAAAG	-0.838 ± 0.12	-0.911 ± 0.19
GCCAAGCAAUAUUACGCAUC	-0.673 ± 0.082	0.0458 ± 0.095
GUGAAGCAAUAUUACGAAAU	-0.716 ± 0.11	-0.0167 ± 0.12
GCUAAGCAAUAUUACGCCAA	-2.35 ± 0.33	-1.74 ± 0.41
CCGGAGCAAUAUUACGGGCC		-2.03 ± 0.33
GCAGAGCAAUAUUACGAGCG	-2.33 ± 0.29	-1.41 ± 0.23
UAACAGCAAUAUUACGACGC	-2.37 ± 0.12	-1.76 ± 0.16
CGAAAGCAAUAUUACGUAAU	-4.18 ± 0.18	-2.3 ± 0.12
GUAAAGCAAUAUUACGCGGA	-1.51 ± 0.086	-1.3 ± 0.11
CAGGAGCAAUAUUACGUUUA	-3.29 ± 0.15	-2.44 ± 0.15
UCACAGCAAUAUUACGGUAG	-1.18 ± 0.085	-0.311 ± 0.1
CUAGAGCAAUAUUACGGGAG	-0.494 ± 0.052	-0.0261 ± 0.075
CUUAAGCAAUAUUACGCUUC	-3.15 ± 0.4	
GAAGAGCAAUAUUACGGUUU	-1.52 ± 0.12	-0.796 ± 0.16
GUUUAGCAAUAUUACGGCGA	-0.198 ± 0.23	-0.0729 ± 0.19
UGACAGCAAUAUUACGUUAC	-3.81 ± 0.35	-3.32 ± 0.31
AUUGAGCAAUAUUACGGACC	-3.26 ± 0.48	

Sequence	self-splicing fitness (ln) (30 °C)	self-splicing fitness (ln) (37 °C)
AGUAAGCAAUAUUACGUCGA	-2.11 ± 0.21	-1.61 ± 0.2
AAUGAGCAAUAUUACGUGAU	-3.8 ± 0.29	-0.708 ± 0.2
UUUUAGCAAUAUUACGAUGC		-2.46 ± 0.38
AAAGAGCAAUAUUACGGGGG	-2.5 ± 0.34	-2.31 ± 0.39
UAAUAGCAAUAUUACGAGAC	-3.38 ± 0.28	-2.03 ± 0.28
AAGUAGCAAUAUUACGGGCC		-1.88 ± 0.37
CCCGAGCAAUAUUACGACGU	-2.47 ± 0.15	-0.954 ± 0.13
UUAUAGCAAUAUUACGAUGA	-0.778 ± 0.12	0.516 ± 0.14
GCAGAGCAAUAUUACGCAGA	-2.78 ± 0.42	-2.22 ± 0.34
CCAGAGCAAUAUUACGCUGC	-2.85 ± 0.27	-1.28 ± 0.25
UCGUAGCAAUAUUACGUAAG	-2.62 ± 0.23	-2.58 ± 0.32
AAUUAGCAAUAUUACGGUCG	-0.573 ± 0.099	-0.259 ± 0.12
CAUGAGCAAUAUUACGCUUU		-3.02 ± 0.24
AUCGAGCAAUAUUACGGAAA		-2.64 ± 0.34
UCUCAGCAAUAUUACGACAG	-2.76 ± 0.17	-2.33 ± 0.17
AGCGAGCAAUAUUACGUCAA	-2.95 ± 0.48	-0.741 ± 0.22
AAACAGCAAUAUUACGAAUU	-2.36 ± 0.11	-1.2 ± 0.13
CAAUAGCAAUAUUACGCUCC		-0.581 ± 0.39
GUCGAGCAAUAUUACGUGCG	-2.9 ± 0.17	-2 ± 0.17
AAGCAGCAAUAUUACGGGUU	-2.1 ± 0.094	-1.61 ± 0.12
GAGAAGCAAUAUUACGAAGU	-2.98 ± 0.24	-1.16 ± 0.27
GCGCAGCAAUAUUACGCCAC		-1.17 ± 0.36
AUCGAGCAAUAUUACGCCCG	-3.48 ± 0.36	-0.807 ± 0.32
GAGGAGCAAUAUUACGUCUU	-3.65 ± 0.2	-2.35 ± 0.23
UUAAAGCAAUAUUACGACCA	-0.0875 ± 0.22	0.312 ± 0.25

Sequence	self-splicing fitness (ln) (30 °C)	self-splicing fitness (ln) (37 °C)
AAGGAGCAAUAUUACGCGGU	-3.56 ± 0.26	-1.37 ± 0.26
UGUGAGCAAUAUUACGGAAA	-2.62 ± 0.38	-2.61 ± 0.31
CCCAAGCAAUAUUACGCCGU	-3.66 ± 0.22	-2.21 ± 0.19
AUAAAGCAAUAUUACGGUGA	-0.436 ± 0.09	-0.422 ± 0.11
CAAAAGCAAUAUUACGAGAG	-2.79 ± 0.1	-2.34 ± 0.11
ACGCAGCAAUAUUACGAUGA	-1.1 ± 0.064	-0.521 ± 0.068
ACGCAGCAAUAUUACGCGCU	-2.24 ± 0.17	-1.31 ± 0.14
AGAGAGCAAUAUUACGUGCG	-1.98 ± 0.16	-1.79 ± 0.26
CUGAAGCAAUAUUACGGUGC	-2.89 ± 0.25	
GGCAAGCAAUAUUACGCUAC	-3.33 ± 0.27	-2.79 ± 0.23
UGUUAGCAAUAUUACGUGUG	-0.767 ± 0.12	-0.724 ± 0.13
AUGGAGCAAUAUUACGGUGG	-4.09 ± 0.3	-2.17 ± 0.27
UGGUAGCAAUAUUACGUGAC	-3.97 ± 0.27	-1.05 ± 0.2
AUAAAGCAAUAUUACGUGCU	-1.29 ± 0.08	-0.736 ± 0.11
AUUUAGCAAUAUUACGGUGG	-3.55 ± 0.31	-3.1 ± 0.27
UCUUAGCAAUAUUACGGUCU	-4.42 ± 0.42	-2.67 ± 0.32
CGAUAGCAAUAUUACGGCUG	-0.568 ± 0.1	0.209 ± 0.15
GAAUAGCAAUAUUACGAUGU	-1.3 ± 0.076	-1.04 ± 0.12
AUAGAGCAAUAUUACGCUCC	-0.896 ± 0.37	-1.91 ± 0.41
CGGAAGCAAUAUUACGAGUC	-2.83 ± 0.22	-2.39 ± 0.31
CGUUAGCAAUAUUACGGUCU	-1.56 ± 0.18	-1.22 ± 0.16
UUUAAGCAAUAUUACGUAUC		-1.84 ± 0.33
AUACAGCAAUAUUACGGCCC	-1.15 ± 0.19	-0.184 ± 0.28
GCGGAGCAAUAUUACGGGGU	-1.55 ± 0.23	
AGGGAGCAAUAUUACGUAGG		-2.14 ± 0.47
